From patent US20180057581A1 come the findings set out here.

In general, EC50 refers to the concentration at which the effect is half-maximal. Read a high EC50 as a less potent agent.

Changes are numbered by the printed parent chain.

The target in test [1] is native human M-CSF (in human serum or in MDA-MB-231 conditioned medium) (human), P09603. Description: cell-based or functional assay.
In test [2] the target is M-CSF endogenously expressed on MDA-MB-231 cells (human) (UniProt P09603). The experiment in a line: FACS, MDA-MB-231 cells endogenously expressing M-CSF (n = 2). (A flow cytometer gives signals particle by particle.)

Sequence of native human M-CSF (in human serum or in MDA-MB-231 conditioned medium) (human), P09603 (P09603 33-255): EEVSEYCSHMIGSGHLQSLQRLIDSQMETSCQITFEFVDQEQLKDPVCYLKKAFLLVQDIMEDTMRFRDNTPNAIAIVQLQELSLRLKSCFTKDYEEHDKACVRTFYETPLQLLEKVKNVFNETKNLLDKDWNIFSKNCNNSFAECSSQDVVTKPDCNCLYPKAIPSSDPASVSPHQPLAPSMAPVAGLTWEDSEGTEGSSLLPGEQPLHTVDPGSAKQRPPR

B1: Blanche, IgG1_D265A (antibody, V domains shown)
VH: QVQLQQSGPGLVKPSQTLSLTCAISGDSVSSNSAAWNWIRQSPSRGLEWLGRTYYRSKWKHEYAMSVKSRITINPDTSKNQFSLQLNSVTPEDTAVYYCARDRYYYSAFDYWGQGTLVTVSS
VL: DIALTQPASVSGSPGQSITISCTGTSSDVGGYNSVSWYQQHPGKAPKLMIYAVSNRPSGVSNRFSGSKSGNTASLTISGLQAEDEADYYCASYDERFTRVFGGGTKLTVLGQ
In test [1], B1 registered an IC50, inhibition of M-NFS-60 proliferation induced by MDA-MB-231 conditioned medium of 0.12 nM and an IC50, inhibition of M-NFS-60 proliferation induced by human serum (50%) of 0.0183 nM.

B2: Laurine, IgG1_D265A (antibody, V domains shown)
VH: B1 VH with H61K, M65Q
VL: B1 VL
For the molecule B2, in test [1], the IC50, inhibition of M-NFS-60 proliferation induced by MDA-MB-231 conditioned medium is 0.095 nM and the IC50, inhibition of M-NFS-60 proliferation induced by human serum (50%) was 0.0156 nM.

B3: Madeleine, IgG1_D265A (antibody, V domains shown)
VH: B1 VH with H61K, M65Q
VL: QSALTQPASVSGSPGQSITISCTGTSSDVGGYNSVSWYQQHPGKAPKLMIYAVSNRPSGVSNRFSGSKSGNTASLTISGLQAEDEADYYCASYDERFTRVFGGGTKLTVLG
For B3, in test [2], the EC50 is 10 nM.

B4: Camille (format not stated) (antibody, V domains shown)
VH: B1 VH with D27E, S31T, N32S, M65V
VL: B1 VL with D1Q, I2S, M49L
In test [1], B4 returned a Cell viability assay (IC50), Human serum M-CSF of 0.018 nM and a Cell viability assay (IC50), MDA-MB-231 of 0.099 nM.

B5: Celine, IgG1_D265A (antibody, V domains shown)
VH: B1 VH with S31T, N32S, M65V
VL: B1 VL with D1Q, I2S, M49I
In test [1], B5 came in with an IC50, inhibition of M-NFS-60 proliferation induced by MDA-MB-231 conditioned medium of 0.0724 nM and an IC50, inhibition of M-NFS-60 proliferation induced by human serum (50%) of 0.0238 nM.

B6: Meriem, IgG1_D265A (antibody, V domains shown)
VH: B1 VH with S31T, N32S, H61K, M65Q
VL: B3 VL with M49I
On to B6, for which, in test [2], the EC50 was found to be 10 nM.

B7: Maelle, IgG1_D265A (antibody, V domains shown)
VH: B1 VH with D27E, S31T, N32S, H61K, M65Q
VL: B1 VL with D1Q, I2S, M49I
B7: in test [1], the IC50, inhibition of M-NFS-60 proliferation induced by MDA-MB-231 conditioned medium was determined as 0.0989 nM and the IC50, inhibition of M-NFS-60 proliferation induced by human serum (50%) was determined as 0.016 nM.

B8: Camille, IgG1_D265A (antibody, V domains shown)
VH: B1 VH with D27E, S31T, N32S, M65V
VL: B1 VL with D1Q, I2S, M49L
In test [1], B8 came in with an IC50, inhibition of M-NFS-60 proliferation induced by MDA-MB-231 conditioned medium of 0.0985 nM and an IC50, inhibition of M-NFS-60 proliferation induced by human serum (50%) of 0.0177 nM.

B9: Laurine, IgG1_D265A (antibody, V domains shown)
VH: B1 VH with H61K, M65Q
VL: B3 VL with Q1D, S2I
Regarding B9, the EC50 in test [2] was determined as 9 nM.

B10: Madeleine, IgG1_D265A (antibody, V domains shown)
VH: B1 VH with H61K, M65Q
VL: B1 VL with D1Q, I2S
Consider B10, for which, in test [1], the IC50, inhibition of M-NFS-60 proliferation induced by MDA-MB-231 conditioned medium is 0.0754 nM and the IC50, inhibition of M-NFS-60 proliferation induced by human serum (50%) was determined as 0.02 nM.

B11: Celine, IgG1_D265A (antibody, V domains shown)
VH: B1 VH with S31T, N32S, M65V
VL: B3 VL with M49I
In the case of B11, the EC50 in test [2] is 13 nM.

B12: Caline, IgG1_D265A (antibody, V domains shown)
VH: B1 VH
VL: B1 VL with D1Q, I2S
Consider B12, for which, in test [1], the IC50, inhibition of M-NFS-60 proliferation induced by MDA-MB-231 conditioned medium was 0.107 nM and the IC50, inhibition of M-NFS-60 proliferation induced by human serum (50%) was found to be 0.0177 nM.

B13: Blanche, IgG1_D265A (antibody, V domains shown)
VH: B1 VH
VL: B3 VL with Q1D, S2I
In test [2], B13 registered an EC50 of 10 nM.

B14: Maelle, IgG1_D265A (antibody, V domains shown)
VH: B1 VH with D27E, S31T, N32S, H61K, M65Q
VL: B3 VL with M49I
In test [2], B14 showed an EC50 of 8 nM.

B15: Meriem, IgG1_D265A (antibody, V domains shown)
VH: B1 VH with S31T, N32S, H61K, M65Q
VL: B1 VL with D1Q, I2S, M49I
On to B15, for which, in test [1], the IC50, inhibition of M-NFS-60 proliferation induced by MDA-MB-231 conditioned medium is 0.0769 nM and the IC50, inhibition of M-NFS-60 proliferation induced by human serum (50%) came to 0.0151 nM.

B16: Caline, IgG1_D265A (antibody, V domains shown)
VH: B1 VH
VL: B3 VL
Take B16: the EC50 in test [2] was 14 nM.

B17: Romaine, IgG1_D265A (antibody, V domains shown)
VH: EVQLVESGGGLVKPGGSLRLSCAASGFTFSIYAMSWVRQAPGKGLEWVGRIKSNADGGTTEYAAPVKGRFTISRDDSKNTLYLQMNSLKTEDTAVYYCARMRYYSDLYFDPWGQGTLVTVSS
VL: DIELTQPPSVSVSPGQTASITCSGDAIGSKYVHWYQQKPGQAPVLVISKDNKRPSGIPERFSGSNSGNTATLTISGTQAEDEADYYCQTATVSSYWWVFGGGTKLTVLGQ
In the case of B17, in test [1], the IC50, inhibition of M-NFS-60 proliferation induced by MDA-MB-231 conditioned medium is 0.0833 nM and the IC50, inhibition of M-NFS-60 proliferation induced by human serum (50%) amounted to 0.0252 nM.

B18: Satine, IgG1_D265A (antibody, V domains shown)
VH: B17 VH
VL: SYELTQPPSVSVSPGQTASITCSGDKLGQKYVSWYQQKPGQSPVLVISQDRKRPSGIPERFSGSNSGNTATLTISGTQAEDEADYYCQTWTHLQWVFGGGTKLTVLG
In turn, B18 came in with an EC50 in test [2] of 26 nM.

B19: Romaine, IgG1_D265A (antibody, V domains shown)
VH: B17 VH
VL: DIELTQPPSVSVSPGQTASITCSGDAIGSKYVHWYQQKPGQAPVLVISKDNKRPSGIPERFSGSNSGNTATLTISGTQAEDEADYYCQTATVSSYWWVFGGGTKLTVLG
The molecule B19 returned an EC50 in test [2] of 19 nM.

B20: Satine, IgG1_D265A (antibody, V domains shown)
VH: B17 VH
VL: SYELTQPPSVSVSPGQTASITCSGDKLGQKYVSWYQQKPGQSPVLVISQDRKRPSGIPERFSGSNSGNTATLTISGTQAEDEADYYCQTWTHLQWVFGGGTKLTVLGQ
For the molecule B20, in test [1], the IC50, inhibition of M-NFS-60 proliferation induced by MDA-MB-231 conditioned medium was 0.0708 nM and the IC50, inhibition of M-NFS-60 proliferation induced by human serum (50%) was 0.0318 nM.

B21: Servane, IgG1_D265A (antibody, V domains shown)
VH: B17 VH with I31T, M34I, R50F, N54K, A55H, D56N, G57S
VL: B20 VL
Take B21: in test [1], the IC50, inhibition of M-NFS-60 proliferation induced by MDA-MB-231 conditioned medium amounted to 0.107 nM and the IC50, inhibition of M-NFS-60 proliferation induced by human serum (50%) was determined as 0.0932 nM.

B22: HeRX1-10G1, IgG1 (antibody, V domains shown)
VH: QVQLQESGPGLVKPSQTLSLTCTVSDYSITSDYAWNWIRQFPGKGLEWMGYISYSGSTSYNPSLKSRITISRDTSKNQFSLQLNSVTAADTAVYYCASFDYAHAMDYWGQGTTVTVSS
VL: DIVLTQSPAFLSVTPGEKVTFTCQASQSIGTSIHWYQQKTDQAPKLLIKYASESISGIPSRFSGSGSGTDFTLTISSVEAEDAADYYCQQINSWPTTFGGGTKLEIKRT
With B22, in test [1], the IC50, inhibition of M-NFS-60 proliferation induced by MDA-MB-231 conditioned medium worked out at 0.0903 nM and the IC50, inhibition of M-NFS-60 proliferation induced by human serum (50%) is 0.0154 nM.

B23: HeRX1-10G1, IgG1_D265A (antibody, V domains shown)
VH: B22 VH
VL: DIVLTQSPAFLSVTPGEKVTFTCQASQSIGTSIHWYQQKTDQAPKLLIKYASESISGIPSRFSGSGSGTDFTLTISSVEAEDAADYYCQQINSWPTTFGGGTKLEIKR
Turning to B23, the EC50 in test [2] stood at 23 nM.

B24: HeRX1-10G1, IgG1 (antibody, V domains shown)
VH: B22 VH
VL: B23 VL
In the case of B24, the EC50 in test [2] was determined as 27 nM.

B25: HeRX1-10G1 (format not stated) (antibody, V domains shown)
VH: B22 VH
VL: B22 VL
With B25, in test [1], the Cell viability assay (IC50), Human serum M-CSF was 0.015 nM and the Cell viability assay (IC50), MDA-MB-231 was 0.09 nM.

B26: HeRX1-10G1, IgG1_D265A (antibody, V domains shown)
VH: B22 VH
VL: B22 VL
With B26, in test [1], the IC50, inhibition of M-NFS-60 proliferation induced by MDA-MB-231 conditioned medium is 0.0591 nM and the IC50, inhibition of M-NFS-60 proliferation induced by human serum (50%) amounted to 0.0124 nM.
